From IntAct's records for PubMed 23706742

B1: Phosphatidylinositol 4,5-bisphosphate 3-kinase catalytic subunit beta isoform (Mus musculus), Q8BTI9 (parent)
chain: MPPAMADNLDIWAVDSQIASDGAISVDFLLPTGIYIQLEVPREATISYIKQMLWKQVHNYPMFNLLMDIDSYMFACVNQTAVYEELEDETRRLCDVRPFLPVLKLVTRSCDPAEKLDSKIGVLIGKGLHEFDALKDPEVNEFRRKMRKFSEAKIQSLVGLSWIDWLKHTYPPEHEPSVLENLEDKLYGGKLVVAVHFENSQDVFSFQVSPNLNPIKINELAIQKRLTIRGKEDEASPCDYVLQVSGRVEYVFGDHPLIQFQYIRNCVMNRTLPHFILVECCKIKKMYEQEMIAIEAAINRNSSNLPLPLPPKKTRVISHIWDNNNPFQITLVKGNKLNTEETVKVHVRAGLFHGTELLCKTVVSSEISGKNDHIWNEQLEFDINICDLPRMARLCFAVYAVLDKVKTKKSTKTINPSKYQTIRKAGKVHYPVAWVNTMVFDFKGQLRSGDVILHSWSSFPDELEEMLNPMGTVQTNPYAENATALHITFPENKKQPCYYPPFDKIIEKAAELASGDSANVSSRGGKKFLAVLKEILDRDPLSQLCENEMDLIWTLRQDCRENFPQSLPKLLLSIKWNKLEDVAQLQALLQIWPKLPPREALELLDFNYPDQYVREYAVGCLRQMSDEELSQYLLQLVQVLKYEPFLDCALSRFLLERALDNRRIGQFLFWHLRSEVHTPAVSVQFGVILEAYCRGSVGHMKVLSKQVEALNKLKTLNSLIKLNAVKLSRAKGKEAMHTCLKQSAYREALSDLQSPLNPCVILSELYVEKCKYMDSKMKPLWLVYSSRAFGEDSVGVIFKNGDDLRQDMLTLQMLRLMDLLWKEAGLDLRMLPYGCLATGDRSGLIEVVSTSETIADIQLNSSNVAATAAFNKDALLNWLKEYNSGDDLDRAIEEFTLSCAGYCVASYVLGIGDRHSDNIMVKKTGQLFHIDFGHILGNFKSKFGIKRERVPFILTYDFIHVIQQGKTGNTEKFGRFRQCCEDAYLILRRHGNLFITLFALMLTAGLPELTSVKDIQYLKDSLALGKSEEEALKQFKQKFDEALRESWTTKVNWMAHTVRKDYRS
B2: GTP-binding protein Di-Ras1 (Mus musculus), Q91Z61 (parent)
chain: MPEQSNDYRVVVFGAGGVGKSSLVLRFVKGTFRDTYIPTIEDTYRQVISCDKSVCTLQITDTTGSHQFPAMQRLSISKGHAFILVFSVTSKQSLDELSPIYKLIVQIKGSVEDIPIMLVGNKCDETQREVHTREAQAVAQEWKCAFMETSAKMNYNVKELFQELLTLETRRSVSLSVDGKRSSKQKRADRIKGKCALM

Variants of: B1
Details: with rac1_mouse Rac1, P63001

**Q.** Which “effect of a mutation on the interaction” value does the source give for Q223D here?
**A.** decreasing interaction strength

**Q.** Which “effect of a mutation on the interaction” value does the source give for T227D here?
**A.** decreasing interaction strength

**Q.** D202A was tested. Which “effect of a mutation on the interaction” value did it give?
**A.** disrupting interaction strength

**Q.** How did the “effect of a mutation on the interaction” value turn out when Y187A was run?
**A.** disrupting interaction strength

**Q.** With V192K as the variant, how does the “effect of a mutation on the interaction” value read?
**A.** disrupting interaction strength

**Q.** Which “effect of a mutation on the interaction” value does the source give for V192S here?
**A.** disrupting interaction strength

**Q.** V203K was tested. Which “effect of a mutation on the interaction” value did it give?
**A.** disrupting interaction strength

**Q.** How did the “effect of a mutation on the interaction” value turn out when V203S was run?
**A.** disrupting interaction strength

**Q.** For K190A, which “effect of a mutation on the interaction” value is on record?
**A.** decreasing interaction strength

**Q.** How did the “effect of a mutation on the interaction” value turn out when K231A was run?
**A.** decreasing interaction strength

**Q.** Which “effect of a mutation on the interaction” value does the source give for Q207D here?
**A.** decreasing interaction strength

**Q.** K185A was tested. Which “effect of a mutation on the interaction” value did it give?
**A.** decreasing interaction strength

**Q.** For R229A, which “effect of a mutation on the interaction” value is on record?
**A.** disrupting interaction strength

**Q.** For E183A, which “effect of a mutation on the interaction” value is on record?
**A.** decreasing interaction strength

**Q.** A194S was tested. Which “effect of a mutation on the interaction” value did it give?
**A.** decreasing interaction strength

**Q.** With A194K as the variant, how does the “effect of a mutation on the interaction” value read?
**A.** disrupting interaction strength

**Q.** How did the “effect of a mutation on the interaction” value turn out when S205D;K224A was run?
**A.** decreasing interaction strength

**Q.** For E219A, which “effect of a mutation on the interaction” value is on record?
**A.** decreasing interaction strength

**Q.** For L186A, which “effect of a mutation on the interaction” value is on record?
**A.** disrupting interaction strength

Variants of: B1
Details: with cdc42_mouse Cdc42, P60766
Sequence of cdc42_mouse Cdc42, P60766 (P60766 whole entry, looked up): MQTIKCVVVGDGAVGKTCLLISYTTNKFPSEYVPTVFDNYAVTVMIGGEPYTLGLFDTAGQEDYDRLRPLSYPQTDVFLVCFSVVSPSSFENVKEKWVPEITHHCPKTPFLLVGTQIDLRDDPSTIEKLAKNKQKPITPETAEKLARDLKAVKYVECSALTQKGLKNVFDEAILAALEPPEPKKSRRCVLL

**Q.** How did the “effect of a mutation on the interaction” value turn out when Q223D was run?
**A.** decreasing interaction strength

**Q.** Which “effect of a mutation on the interaction” value does the source give for T227D here?
**A.** disrupting interaction strength

**Q.** How did the “effect of a mutation on the interaction” value turn out when D202A was run?
**A.** disrupting interaction strength

**Q.** Which “effect of a mutation on the interaction” value does the source give for Y187A here?
**A.** disrupting interaction strength

**Q.** Which “effect of a mutation on the interaction” value does the source give for V192K here?
**A.** disrupting interaction strength

**Q.** Which “effect of a mutation on the interaction” value does the source give for V192S here?
**A.** disrupting interaction strength

**Q.** For V203K, which “effect of a mutation on the interaction” value is on record?
**A.** disrupting interaction strength

**Q.** Which “effect of a mutation on the interaction” value does the source give for V203S here?
**A.** disrupting interaction strength

**Q.** Which “effect of a mutation on the interaction” value does the source give for K190A here?
**A.** decreasing interaction strength

**Q.** With K231A as the variant, how does the “effect of a mutation on the interaction” value read?
**A.** disrupting interaction strength

**Q.** With Q207D as the variant, how does the “effect of a mutation on the interaction” value read?
**A.** decreasing interaction strength

**Q.** How did the “effect of a mutation on the interaction” value turn out when K185A was run?
**A.** decreasing interaction strength

**Q.** With R229A as the variant, how does the “effect of a mutation on the interaction” value read?
**A.** disrupting interaction strength

**Q.** With E183A as the variant, how does the “effect of a mutation on the interaction” value read?
**A.** decreasing interaction strength

**Q.** How did the “effect of a mutation on the interaction” value turn out when A194S was run?
**A.** decreasing interaction strength

**Q.** How did the “effect of a mutation on the interaction” value turn out when A194K was run?
**A.** disrupting interaction strength

**Q.** How did the “effect of a mutation on the interaction” value turn out when S205D;K224A was run?
**A.** decreasing interaction strength

**Q.** How did the “effect of a mutation on the interaction” value turn out when E219A was run?
**A.** decreasing interaction strength

**Q.** For L186A, which “effect of a mutation on the interaction” value is on record?
**A.** disrupting interaction strength

Variants of: B1
Details: with rac1_mouse Rac1, P63001
Remark: another data set of the same source

**Q.** How did the “effect of a mutation on the interaction” value turn out when S205D;V244A was run?
**A.** disrupting interaction strength

Variants of: B1
Details: with cdc42_mouse Cdc42, P60766
Remark: another data set of the same source

**Q.** With S205D;K224A as the variant, how does the “effect of a mutation on the interaction” value read?
**A.** disrupting interaction strength

Variants of: B1
Details: with rash_mouse Hras

**Q.** How did the “effect of a mutation on the interaction” value turn out when S205D;K224A was run?
**A.** disrupting interaction strength

Variants of: B1
Details: with rac1_mouse Rac1, P63001
Remark: another data set of the same source

**Q.** S205D;K224A was tested. Which “effect of a mutation on the interaction” value did it give?
**A.** disrupting interaction

Variants of: B1
Details: with cdc42_mouse Cdc42, P60766
Remark: another data set of the same source

**Q.** How did the “effect of a mutation on the interaction” value turn out when S205D;K224A was run?
**A.** disrupting interaction

Variants of: B2
Details: with pk3cb_mouse Pik3cb

**Q.** With MPEQSNDYRVVVFGAGGVGKSSLVLRFVKGTFRDTYDPTIEDTYRQVISCDKSVCTLQITDTTGSHQFPAMQRLSISKGHAFILVFSVTSKQSLDELSPIYKLIVQIKGSVEDIPIMLVGNKCDETQREVHTREAQAVAQEWKCAFMETSAKMNYNVKELFQELLTLETRRSVSLSVDGKRSSKQKRADRIKGKCALM [I37D] as the variant, how does the “effect of a mutation on the interaction” value read?
**A.** decreasing interaction strength
